Primed or numbered codes have the meaning given here. Ends that are not written are not given here. FITC′ = fluorescein isothiocyanate label
How the values were obtained:
[1] = target: T1, recombinant IAg7 (rIAg7; RTL450), single polypeptide comprising the β1 and α1 domains of the MHC class II … (mouse); experiment: disulfide capture of FITC-labeled peptides, SDS-PAGE
T1 construct: no peptide attached; Internal C17-C79 disulfide bond; also called empty rIAg7; rIA7
T1 chain: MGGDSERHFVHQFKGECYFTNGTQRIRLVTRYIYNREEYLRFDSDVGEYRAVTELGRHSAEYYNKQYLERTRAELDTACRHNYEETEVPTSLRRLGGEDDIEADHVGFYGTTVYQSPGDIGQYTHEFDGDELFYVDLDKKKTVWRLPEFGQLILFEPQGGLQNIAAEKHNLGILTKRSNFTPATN

[2] = target: T2, recombinant murine I-A^b (β1α1 RTL) (mouse); experiment: disulfide capture, SDS-PAGE
T2 construct: Single-chain two-domain MHC class II polypeptide, with no peptide attached before loading; also called rI-A^b RTL; rIAb
T2 chain: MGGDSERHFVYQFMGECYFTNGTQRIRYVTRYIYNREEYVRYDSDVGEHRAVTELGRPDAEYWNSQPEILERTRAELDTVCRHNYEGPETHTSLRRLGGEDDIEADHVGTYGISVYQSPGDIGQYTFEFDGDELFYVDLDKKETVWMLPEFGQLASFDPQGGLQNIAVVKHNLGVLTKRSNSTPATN

[3] = target: T3, recombinant human DR2 (β1α1 RTL) (human); experiment: disulfide capture, SDS-PAGE
T3 construct: Single-chain two-domain MHC class II polypeptide, with no peptide attached before loading; also called rDR2; DR2 RTL
T3 chain: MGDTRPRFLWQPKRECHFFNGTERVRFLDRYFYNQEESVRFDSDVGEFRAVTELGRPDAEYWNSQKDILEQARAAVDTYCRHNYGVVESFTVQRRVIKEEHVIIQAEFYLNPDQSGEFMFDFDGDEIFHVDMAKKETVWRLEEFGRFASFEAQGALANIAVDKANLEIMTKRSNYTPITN

[4] = target: T1, recombinant IAg7 (rIAg7; RTL450), …; experiment: disulfide capture of amino-terminal truncated peptides, SDS-PAGE
Procedure: (§1) A mixture of 10:1 peptide:rIAg7 at 200 μg/ml, 100 mM NaPO₄ pH 6.5; 150 mM NaCl; 0.05% SDS; and 0.01% NaN₃ was produced. After inspecting the mixture for any precipitation, reactions were incubated at 37° C. for 60 hours. Analysis of ability of redox capture conditions to facilitate peptide capture by MHC was performed as follows: 20 μl aliquots at various time points were mixed with an equal volume of 2× electrophoresis sample buffer (1% glycerol, 500 mM Tris, 0.2% SDS, and bromophenol blue at pH 8.0). Samples were then placed on ice for 30 minutes, heated at 90° C. for 6 minutes with or without β-mercaptoethanol and separated by 10-20% SDS-PAGE followed by Coomassie Blue staining to visualize the proteins. Proteins were quantified by densitometry scanning using Molecular Imager FX 5 and Quantity One software (Bio-Rad, Hercules, Calif.).
Coomassie stained bands (29 kD and 31 kD, as indicated) were quantified to determine an initial rate of capture (FIG. 3). Insulin B:16-23 peptide (FITC-[…]; SEQ ID NO: 1) and rIAg7 were mixed (10:1, peptide:rIAg7) in 100 mM NaPO₄, pH 6.5, 150 mM NaCl, 0.05% SDS, and 0.01% NaN₃ and allowed to incubate for the indicated time.

[5] = target: T1, recombinant IAg7 (rIAg7; RTL450), …; experiment: disulfide capture, Coomassie stained SDS-PAGE
Procedure: as §1
A recombinant form of IAg7 (rIAg7) comprising the β1 and α1 domains of the MHC class II molecule expressed as a single polypeptide (rIAg7; RTL450-series) was designed. IAg7-derived constructs are readily produced in E. coli, are well-behaved in aqueous buffers, and bind antigenic peptides. All MHC class II β1 domains comprise a disulfide bond between cysteine 17 and cysteine 79. Insulin B:9-23 is an antigenic peptide that binds IAg7 and comprises a cysteine residue at position 19. […]

B1: FITC-labeled insulin B:9-23 C18 variant (cysteine moved to position 18) (peptide)
peptide: {FITC′}-SHLVEALYLCAGERG
- binding result [1]: binds

B2: S45C mutated mouse MOG35-55 (peptide)
peptide: MEVGWYRPPFCRVVHLYRNGK
notes: also called mMOG35-55 S45C variant; mouse MOG35-55 S45C variant
- binding result [2]: binds

B3: MOG35-55 P43C variant (peptide)
peptide: MEVGWYRSCFSRVVHLYRNGK
notes: also called hMOG35-55 P43C variant
- binding result [3]: binds

B4: MOG35-55 S42C variant (peptide)
peptide: MEVGWYRCPFSRVVHLYRNGK
notes: also called hMOG35-55 S42C variant
- binding result [3]: binds

B5: FITC-labeled insulin B:9-23 C20 variant (cysteine moved to position 20) (peptide)
peptide: {FITC′}-SHLVEALYLVACERG
- binding result [1]: binds

B6: FITC-labeled 8-mer insulin B:16-23 peptide (peptide)
peptide: {FITC′}-YLVCGERG
notes: The C-terminal 8 amino acids of B:9-23
- binding result [4]: binds

B7: insulin B:9-23 peptide (peptide)
peptide: SHLVEALYLVCGERG
notes: Synthetic peptide; also called Insulin B:9-23 (WT); InsB:9-23
- binding result [5]: binds

B8: FITC-labeled insulin B:9-23 peptide, wild-type sequence (C19) (peptide)
peptide: {FITC′}-SHLVEALYLVCGERG
notes: also called Wild-type insulin B:9-23 peptide (C19); amino-terminal FITC-coupled B:9-23
- binding result [1]: binds
